Experimental data as given in patent US20250064890A1, “PROTEIN COMPOSITIONS FOR THE TREATMENT OF INFLAMMATORY DISEASES” (Unichem Laboratories Limited, priority 2021, published 2025).

Legend:
[1] = system: oral (buccal) mucosa cells (TR146); test: Restoration of mitochondrial membrane potential (JC-1) against radiation induced damage; type: cell-based, human; details: for MMP: red/green JC-1 fluorescence ratio
Description: (§1) Oral buccal mucosal cells (TR146) were incubated overnight in 5% CO2 incubator at 37° C. for 24 h. […] After 24 h of treatment, cells were exposed to damage (5-FU 5 mM) for 1.25 h for chemotherapy induced inflammation and exposed to gamma radiation (3.5 kGy) using Cobalt 60 for radiation induced inflammation. After the exposure, the anti-apoptotic effect of SEQ ID NO 2 was determined by restoration of mitochondrial membrane depolarization by JC-1 staining and reduction in apoptotic cell populations (Annexin positive and subG0/G1 cells in cell cycle analysis).
After incubation, the supernatants were discarded and 100 μl of JC1-dye solution (prepared by diluting 1 mM DMSO stock into 10 μM in 1×PBS) was added to each well. The cells were then incubated with the dye in CO2 incubator at 37° C. for 15 min, after which the supernatant was removed, and the cells were washed twice with 1×PBS. 100 μl of 1×PBS was finally added to each well. Red fluorescence (excitation 550 nm, emission 600 nm) and green fluorescence (excitation 485 nm, emission 535 nm) were measured using Biotek Synergy HT plate reader. The mitochondrial membrane potential (Δψm) was calculated as the ratio of intensity of red fluorescence to intensity of green fluorescence.
The percentage increase/restoration in mitochondrial membrane potential (MMP) was calculated as: % Increase=[(R−X)/R]*100 • Where, X=Δψm corresponding to TI+5-FU treated cells or TI+radiation treated cells; R=Δψm corresponding to control cells (FU damaged or Radiation damaged alone)

[2] = system: oral (buccal) mucosa cells (TR146); test: Annexin positive cell population against radiation damage; type: cell-based, human; details: for % Apoptotic cells: Annexin positive
Description: as §1
To determine the reduction in apoptotic cell populations using annexin-v staining cells were gently harvested into pre-labeled sterile centrifuge tubes and centrifuged at 300×g for 5-7 min. Supernatant were discarded and the pellet was resuspended in 200 μl of fresh culture medium. 100 μl of cell suspension was transferred into pre-labeled sterile centrifuge tubes. 100 μl of Annexin-V reagent was added to each tube and incubated for 30 min at RT in dark. Cells stained for Annexin-V were then transferred into 96-well plates and acquired on flow cytometer (Guava technologies). Percentage of Annexin-V positive cells was calculated as follows:
={[% Annexin positive cells in 5-FU or radiation alone]−[% Annexin positive cells in (TI+5-FU) or (TI+radiation)]/% Annexin positive cells in 5-FU or radiation alone}*100

[3] = system: IL-6; test: Multiplex analysis, chemotherapy (5-FU), TR146; type: cell-based, human; details: for IL-6 against chemotherapy induced levels: 5-FU, in words
Description: (§2) Oral buccal mucosal cells (TR146) cells were incubated overnight at 37° C. in 5% CO2 incubator. […] The cells were then stimulated with 5-FU (10 mM) for another 24h for chemotherapy and with gamma radiation (3.5 kGy) using Cobalt 60 for radiotherapy. After 24 h, cell culture supernatants were collected from each well and stored at −20° C. till multiplex analysis. For NF-kB estimations, cell lysates were prepared. Levels of biomarkers were estimated using Magpix® multiplex machine. The cells treated with Amifostine (along with 5-FU or radiation) were considered as positive control (PC). Untreated cells (5-FU or radiation alone treated) were used as negative control (NC).
(§3) The percent modulation in each sample was determined as follows:
(§4) [{Concentration of biomarkers (pg/ml) in Control cells (5-FU or radiation alone treated)−Concentration of biomarkers (pg/ml) in SEQ ID NO: 2+5-FU or radiation treated cells)}/Concentration of biomarkers (pg/ml) in Control cells (5-FU or radiation alone treated)]*100

[4] = system: MMP-3; test: Multiplex analysis, chemotherapy (5-FU), TR146; type: cell-based, human; details: for MMP-3 against chemotherapy induced levels: 5-FU, in words
Description: as §2, §3, §4

[5] = system: TNF-α; test: Multiplex analysis, chemotherapy (5-FU), TR146; type: cell-based, human; details: for TNF-α against chemotherapy induced levels: 5-FU, in words
Description: as §2, §3, §4

[6] = system: Interleukin-1β; test: Interleukin-1β in jugular mucosa (ELISA), 5-FU induced OM in hamsters; type: in vivo, golden Syrian hamsters; details: for IL-1β levels, % Decrease vs G2: G2 = OM + Vehicle
Description: To induce OM, animals were administered (except normal control) 5-Fluorouracil (5-FU) by intraperitoneal route at doses of 60 mg/kg & 40 mg/kg respectively on first two days. On Day 4, under anesthesia, with aim of enhancing OM, mechanical irritation of the oral mucosa were done using wire brush. Treatment was initiated from Day 4 to Day 12. For group 3 animals 100 μl of vehicle comprising of standard drug Dexamethasone at 0.1 mg was instilled in buccal cheek pouch. For group 4, 5 and 6 animals 100 μl of vehicle comprising of SEQ ID NO. 2 at 0.25 mg, 0.5 mg & 1 mg, respectively was instilled in buccal cheek pouch. At the end of treatment period, cheek pouch of the hamsters was exposed, Mucositis scoring was carried out and images were captured. The animals were then humanely sacrificed, cheek pouch/jugular mucosa were isolated and used for biomarker estimation and histopathological investigation by using ELISA method and Hematoxylin and Eosin (H&E) staining, respectively.
Further, for biomarker estimation jugular mucosa was dissected out, tissue weighed and stored in ice cold 1×PBS. 100 mg of tissue was taken and in 1 ml of 1×PBS buffer. Supernatant of homogenate was used for analysis of TNF-α and Interleukin-1β using ELISA method as per manufacturers instruction. The levels of TNF-α and Interleukin-1β are given in Table 13, FIG. 2 and Table 14, FIG. 3, respectively.

[7] = 0.01 μg/ml + Radiation (3.5 kGy)
[8] = 100 μg/ml + Radiation (3.5 kGy)
[9] = 0.1 μg/ml + Radiation (3.5 kGy)

B1: SEQ ID NO 2: recombinant lectin, variant of the S. rolfsii lectin amino acid sequence (reported as Rec-2 in WO 2010/095143) (protein)
chain: TYKITVRVYQTNPDAFFHPVEKTVWKYANGGTWTITDDQHVLTMGGSGTSGTLRFHADNGESFTATFGVHNYKRWCDIVTNLAADETGMVINQQYYSQKNREEARERQLSNYQVKNAKGRNFQIVYTEAEGNDLHANLIIG
- MMP [1, 7]: 5.76
- % Increase in MMP (with respect to control) ([1]; 1 μg/ml + Radiation (3.5 kGy)): 36.6%
- % Increase in MMP (with respect to control) ([1]; 10 μg/ml + Radiation (3.5 kGy)): 17.8%
- MMP ([1]; 10 μg/ml + Radiation (3.5 kGy)): 5.43
- MMP ([1]; 50 μg/ml + Radiation (3.5 kGy)): 6.29
- % Increase in MMP (with respect to control) [1, 8]: 7.9%
- MMP [1, 8]: 4.97
- % Decrease in Apoptotic cells (with respect to radiation control) [2, 7]: −4.8%
- % Apoptotic cells [2, 7]: 14.3%
- % Decrease in Apoptotic cells (with respect to radiation control) [2, 9]: −7.3%
- % Apoptotic cells [2, 9]: 14.7%
- % Decrease in Apoptotic cells (with respect to radiation control) ([2]; 1 μg/ml + Radiation (3.5 kGy)): 56%
- % Apoptotic cells ([2]; 1 μg/ml + Radiation (3.5 kGy)): 6%
- % Decrease in Apoptotic cells (with respect to radiation control) ([2]; 10 μg/ml + Radiation (3.5 kGy)): 62.2%
- % Apoptotic cells ([2]; 10 μg/ml + Radiation (3.5 kGy)): 5.1%
- % Decrease in Apoptotic cells (with respect to radiation control) ([2]; 10 μg/ml + Radiation (3.5 kGy), listed as SEQ ID NO: 2): 62.6%
- Percentage Inhibition IL-6 ([3]; 0.1 μg/ml + 5-FU (10 mM)): 5.4%
- Percentage Inhibition IL-6 ([3]; 10 μg/ml + 5-FU (10 mM)): 7.8%
- Percentage Inhibition IL-6 ([3]; 25 μg/ml + 5-FU (10 mM)): 18.2%
- Percentage Inhibition IL-6 ([3]; 50 μg/ml + 5-FU (10 mM)): 38.6%
- Percentage Inhibition IL-6 ([3]; 100 μg/ml + 5-FU (10 mM)): 42.2%
- IL-6 against chemotherapy induced levels [3]: lowering of levels
- IL-6 against chemotherapy induced levels ([3]; listed as test items): downregulation
- Percentage Inhibition MMP-3 ([4]; 0.1 μg/ml + 5-FU (10 mM)): 22%
- Percentage Inhibition MMP-3 ([4]; 10 μg/ml + 5-FU (10 mM)): 29.5%
- Percentage Inhibition MMP-3 ([4]; 25 μg/ml + 5-FU (10 mM)): 30.6%
- Percentage Inhibition MMP-3 ([4]; 50 μg/ml + 5-FU (10 mM)): 27.3%
- Percentage Inhibition MMP-3 ([4]; 100 μg/ml + 5-FU (10 mM)): 8.8%
- MMP-3 against chemotherapy induced levels [4]: lowering of levels
- MMP-3 against chemotherapy induced levels ([4]; listed as test items): downregulation
- Percentage Inhibition TNF-α ([5]; 0.1 μg/ml + 5-FU (10 mM)): 13.3%
- Percentage Inhibition TNF-α ([5]; 10 μg/ml + 5-FU (10 mM)): 10%
- Percentage Inhibition TNF-α ([5]; 25 μg/ml + 5-FU (10 mM)): 10%
- Percentage Inhibition TNF-α ([5]; 50 μg/ml + 5-FU (10 mM)): 13.3%
- Percentage Inhibition TNF-α ([5]; 100 μg/ml + 5-FU (10 mM)): 6.6%
- TNF-α against chemotherapy induced levels [5]: lowering of levels
- TNF-α against chemotherapy induced levels ([5]; listed as test items): downregulation
- IL-1β levels, Mean ([6]; G4, 0.25 mg/Animal): 79.10
- IL-1β levels, % Decrease vs G2 ([6]; G4, 0.25 mg/Animal): 54.45%
- IL-1β levels, Mean ([6]; G5, 0.5 mg/Animal): 105.66
- IL-1β levels, % Decrease vs G2 ([6]; G5, 0.5 mg/Animal): 39.16%
- IL-1β levels, Mean ([6]; G6, 1 mg/Animal): 101.96
- IL-1β levels, % Decrease vs G2 ([6]; G6, 1 mg/Animal): 41.29%
- levels of IL-1β as compared to the untreated subjects ([6]; hamsters suffering from OM, in words): reduction
